{"source": "patent US20060240053", "key": {"[1]": {"molecular_target": "T1, RP1 retropepsin inhibitor Ac-Leu-Val-Phe-aldehyde (Bachem N 1395.0005)", "T1 chain": "LVF"}, "[2]": {"molecular_target": "T2, RP2 retropepsin inhibitor Ac-Leu-Leu-Met-aldehyde (Bachem N 1315.0005)", "T2 chain": "LLM"}, "[3]": {"molecular_target": "T3, RP3 retropepsin inhibitor Ac-Leu-Leu-Nle-aldehyde (Bachem N 1320.0005)", "T3 chain": "LLX"}, "[4]": {"molecular_target": "casein substrate sold under the name Enzchek (Molecular Probes)"}, "[5]": {"molecular_target": "T4, corneodesmosin extracted from human stratum corneum, Q15517", "T4 chain": "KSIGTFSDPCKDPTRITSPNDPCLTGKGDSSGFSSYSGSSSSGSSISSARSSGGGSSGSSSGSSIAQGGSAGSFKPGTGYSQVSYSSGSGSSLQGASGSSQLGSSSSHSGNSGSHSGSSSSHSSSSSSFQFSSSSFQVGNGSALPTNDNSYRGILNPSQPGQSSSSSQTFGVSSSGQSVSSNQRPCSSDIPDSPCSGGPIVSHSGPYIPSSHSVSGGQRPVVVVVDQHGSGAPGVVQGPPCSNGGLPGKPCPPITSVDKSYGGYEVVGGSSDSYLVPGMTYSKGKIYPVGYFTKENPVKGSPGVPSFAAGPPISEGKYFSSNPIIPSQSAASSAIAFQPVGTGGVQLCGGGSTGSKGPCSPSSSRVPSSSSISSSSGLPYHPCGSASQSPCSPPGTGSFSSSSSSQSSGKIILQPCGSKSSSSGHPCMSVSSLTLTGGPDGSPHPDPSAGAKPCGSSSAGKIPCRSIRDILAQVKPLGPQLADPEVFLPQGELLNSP"}, "[6]": {"molecular_target": "oxidized beta-chain of insulin (Sigma)", "sequence (chain, as listed by the source)": "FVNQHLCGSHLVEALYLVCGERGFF"}, "[7]": {"molecular_target": "T5, peptide substrate EFDLELIEED (SEQ ID NO: 31)", "T5 chain": "EFDLELIEED"}, "[8]": {"molecular_target": "peptide substrates with amino acid substitutions (among SEQ ID NO: 32, 33, 34, 35)"}}}
{"protein": "activated SASPase (SEQ ID NO: 6) (protein) ANSMGKGYYLKGKIGKVPVRFLVDSGAQVSVVHPNLWEEVTDGDLDTLQPFENVVKVANGAEMKILGVWDTAVSLGKLKLKAQFLVANASAEEAIIGTDVLQDHNAILDFEHRTCTLKGKKFRLLPVGGSLEDEFDLE", "values": [{"measurement": "kinetics for casein hydrolysis (fluorescence 485/535 nm)", "setting": "[1]", "value": "the kinetics for casein hydrolysis, in the presence of the RP1 and RP2 retropepsin inhibitors, are lower than the control"}, {"measurement": "kinetics for casein hydrolysis (fluorescence 485/535 nm)", "setting": "[2]", "value": "the kinetics for casein hydrolysis, in the presence of the RP1 and RP2 retropepsin inhibitors, are lower than the control"}, {"measurement": "kinetics for casein hydrolysis (fluorescence 485/535 nm)", "setting": "[3]", "value": "the kinetics for casein hydrolysis, in the presence of the RP3 retropepsin inhibitor, are significantly higher than those obtained under the control conditions"}, {"measurement": "caseinolytic activity", "setting": "[4]", "value": "Its caseinolytic activity was, moreover, demonstrated (results not shown)"}, {"measurement": "% Residual corneodesmosin T24 h/T0*100", "setting": "[5]", "value": 75, "unit": "%"}, {"measurement": "hydrolysis of the substrate followed by HPLC", "setting": "[6]", "value": "These results show that the activated SASPase is capable of degrading insulin"}]}
{"protein": "recombinant fusion protein GST-SASPase delta1-84 (SEQ ID NO: 4) (protein) MAGSGARSEEGRRQHAFVPEPFDGANVVPNLWLHSFEVINDLNHWDHITKLRFLKESLRGEALGVYNRLSPQDQGDYGTVKEALLKAFGVPGAAPSHLPKEIVFANSMGKGYYLKGKIGKVPVRFLVDSGAQVSVVHPNLWEEVTDGDLDTLQPFENVVKVANGAEMKILGVWDTAVSLGKLKLKAQFLVANASAEEAIIGTDVLQDHNAILDFEHRTCTLKGKKFRLLPVGGSLEDEFDLELIEEDPSSEEGRQELSH", "values": [{"measurement": "autocleavage in acetate buffer pH 4.5, SDS-PAGE over time", "value": "A decrease in the whole form GST-SASPase C27 is observed over time, which demonstrates an autocleavage and, consequently, an autoactivation"}, {"measurement": "hydrolysis of quenched peptide substrate (fluorescence 340/450 nm)", "setting": "[7]", "value": "the natural (wt) peptide is effectively hydrolyzed by the SASPase"}, {"measurement": "hydrolysis of quenched peptide substrate (fluorescence 340/450 nm)", "setting": "[8]", "value": "amino acid substitutions in the sequence of this peptide can generate substrates for which the SASPase has greater affinity"}]}
